The source of these data is publication PMC3902912.

The data set addresses T1, CTCF11ZF (UniProt Q61164 266-579).
T1 sequence: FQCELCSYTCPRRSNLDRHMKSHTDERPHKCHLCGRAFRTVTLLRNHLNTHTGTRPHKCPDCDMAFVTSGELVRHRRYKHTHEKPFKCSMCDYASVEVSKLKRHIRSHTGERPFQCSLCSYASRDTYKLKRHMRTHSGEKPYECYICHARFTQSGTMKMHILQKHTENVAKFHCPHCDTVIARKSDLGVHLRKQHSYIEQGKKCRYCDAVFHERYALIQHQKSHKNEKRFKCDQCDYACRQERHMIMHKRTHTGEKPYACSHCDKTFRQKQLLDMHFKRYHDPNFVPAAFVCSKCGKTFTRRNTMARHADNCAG
Put plainly: FP competition.

B1: LowOc1_Scrambled (dsDNA)
DNA 1: CCCTGGTCGGTGTGGCTGGCGACACCTCGCACTCTG
DNA 2: CAGAGTGCGAGGTGTCGCCAGCCACACCGACCAGGG
In the case of B1, the binding result is listed as “no binding”.
